{"source": "paper PMC6879633", "key": {"[1]": {"biological_target": "WT-A34F, A34F point mutant of wild-type Gβ1 (Streptococcus)", "test": "SEC; analytical size-exclusion chromatography, Superdex 200 Increase; 1 mL of protein at 1 mM loaded; 10 mM sodium phosphate buffer pH 7.4, 1 mL/min; elution time compared with monomeric (wild type) and dimeric (WT-A34F) controls; self-association, monomer or dimer"}, "[2]": {"biological_target": "WT-A34F/V39L double mutant of wild-type Gβ1 (Streptococcus)", "test": "NMR titration"}, "[3]": {"biological_target": "WT-A34F/V39L double mutant of wild-type Gβ1 (Streptococcus)", "test": "SEC; analytical size-exclusion chromatography, Superdex 200 Increase; 1 mL of protein at 1 mM loaded; 10 mM sodium phosphate buffer pH 7.4, 1 mL/min; elution time compared with monomeric (wild type) and dimeric (WT-A34F) controls; self-association, monomer or dimer"}}, "data": [{"substance": "WT-A34F, A34F point mutant of wild-type Gβ1 (domain or fragment)", "values": [{"measurement": "stoichiometry N", "setting": "[1]", "value": 2}]}, {"substance": "WT-A34F/V39L double mutant of wild-type Gβ1 (domain or fragment)", "values": [{"measurement": "Kd", "setting": "[2]", "value": 116, "unit": "µM"}, {"measurement": "stoichiometry N", "setting": "[3]", "value": 2}]}]}
